Measured values reported in the RNAGym collection of RNA variant scans (doi:10.1073/pnas.2313332121).

B1: TPR t1 (parent)
chain: GACCAAUCUGCCCUCAGAGCUCGAGAACAUCUUCGGAUGCAGAGGAGGCAGGCUUCGGUGGCGCGAUAGCGCCAACGUCCUCAACCUCCAAUGCAUCCCACCACAUGAUGAUGCCUGAAGAGCCUUGGUUUUUUG

Variants of: B1
Test: polymerase ribozyme fitness, log enrichment relative to wild type (log ratio); higher = more active; in vitro selection for triplet polymerase activity
How it was run: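 Mutant libraries were PCR-built and transcribed for each subunit of a heterodimeric triplet polymerase ribozyme and selected for one round in triplicate at −7 °C, frozen, before gel excision of extended constructs and streptavidin-bead capture. Input and output libraries were Illumina-sequenced, keeping genotypes with ≥10 input reads and ≥1 read per output. Fitness is a logarithmic ratio of genotype to wild-type enrichment, in base 2, using inverse-variance-weighted replicate averages.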

Variant | polymerase ribozyme fitness (log ratio)
C20A A41G C53A G71U U78G | -5.43
A18G C123U | -1.44
A18C C72G C124A U129A | -3.56
G19U C82A | -3.28
G17U U109A | -6.56
G19C C49G U92A U125G | -4.13
A18G C31G C88U C114G | -5.82
G19U C86G | -3.71
C20A G48A C49G G61A U87G A90C | -5.02
A18U A26G C40G A43U G69A C97A U112A | -7.04
C20A U125A | -3.22
A18U U133G | -1.41
C20A G51A G61C | -6.95
A18U C40U A46C C82A C86A C124G | -4.93
A18U G39U G48U C73U A84C | -4.34
A18U G44U C88G C89A | -2.55
G17C G61U | -3.71
G19A G71C C115U G128U | -5.92
G19U A41G G63U | -4.85
G17U C56G G113A | -5.78
C20A A27U A95G U131A | -3.17
G19U C72U A84C | -2.82
G19U G47C C97U C114G | -2.97
C20A C31G G39U A46U G47A A100C A108U U125A | -6.51

Variant | polymerase ribozyme fitness (log ratio)
A18C G71U | -3.18
A18G G61U C94G G113U | -3.32
G19A U87G A105C A111C | -4.37
C20A G57C | -3.31
C20A C70U G93A G113C U132C | -7.65
A18G G57U U59C C62A C94U G117U | -5.27
G17U C72U | -3.14
A18U C56U C94U A111C C114U | -5.39
G19A G63A U92A | -4.56
G19A A118G C124G | -1.63
G19U A43U A74U | -3.22
A18U C40G C114A | -3.02
A18U A90C G122A | -2.49
A18U U59A A68G A91U G120U | -6.77
G19A G61A C104A G107A A121G | -5.44
A18U C86A C89U C123U | -3.07
G19U G39U G48A A111G | -4.12
A18U U54C A83G U109A | -6.59
G17U C72U U130A | -2.54
A18C C20U G36U C56G | -3.57
C20A G52C | -2.97
G19A C70G C85U C114G | -7.51
C20A A37G C49A G63A | -4.85
G17C G63A G77U U81A A119G A121C | -5.23

Variant | polymerase ribozyme fitness (log ratio)
C20A A91G U109G | -4.02
A18C G47A | -2.19
G19A G42U G71U G122A | -3.83
G17U A43C U59G C62G A75G C115U C124G | -5.23
G19C G42U C62U C76G U92G | -4.02
C20A C76A U106A | -4.96
G17U C114U U125A | -5.53
A18U C20G G61A | -6.8
G19A A43U C53U C56A | -3.04
A18U C40A C70A A121C | -5.25
C20A U32G G35C G93A G113A U125A | -6.57
A18C C88G G120A | -2.81
A18G U67A C102U C123A | -5.64
A18U A29G G42C G110U U112G | -5.42
C20A G117U | -3.2
C20A G117A | -3.21
A18U C22A G113A | -3.79
A18U C86G G113U | -4.47
C20A A37U A83C | -3.38
G17U C70U U78G | -3.17
G17U C40A G42A C49A | -6.46
A18C C20A U54A U96A | -3.05
A18U G128C | -4.63
A18G G35A G69A G117A | -5.21

Variant | polymerase ribozyme fitness (log ratio)
G19U A26U C64U U78C C114A | -1.82
G19A C49G G60U C85U A111C | -2.03
C20A U132A | -2.24
G19C C86G A121G | -0.947
G17U C34A | -3.65
G19U A41C U92A C94U C115U U133G | -5.87
G19C C72G | -3.09
G19A G44U G48C C49A C53A G69U C88G C104A G135C | -2.97
C20A C72A A118U | -1.46
A18C G19U G48A G58C C62G C124A | -5.33
A18C C114G | -2.59
A18U G48U | -2.49
G19U A24U A41C A43U U92G C101G G110U | -6.86
A18C C104A | -4.52
G17U G48C | -2.61
C20A C28U G39U G71U C97U C123A | -6.92
G19U U96G C114A | 1.12
A18U C28U A50U C98A | -7.62
A18U A74C A90U A121C U129A | -1.29
A18U C73U U96A | -3.25
C20A G77U | -3.11
C20A G77A | -3.54
C20A U96G | -3.33
A18G U92C C104U G117U C123A | -2.56

Variant | polymerase ribozyme fitness (log ratio)
G17U A105C U109A C124A | -5.37
G19A C64U | -2.88
G19A C85U | -3.47
C20A G44U G69A C86A C123G | -6.49
A18G G39U C53U G71A G120A | -4.4
A18C C20U C88G G110C | -4.72
G19U U21A G47C A90C G113C | -4.49
G17U C70U U87A | -4.04
A18G G42C C99A | -5.32
A18G | -1.83
A18U | -2.13
A18C | -2.11
A18C C115U | -2.17
G19C G63C A111G C115G | -5.11
C20A C62G G63U C114A G120A | -6.07
A18G G113C | -1.3
A18G G48A U116G | -3.25
A18C C28U | -5.11
A18U U96C U112A | -1.44
A18C C72A | -2.45
A18C C72G | -3.9
A18C C72U | -2.49
G17C G69U G122A | -2.46
A18C G61A | -2.53

Variant | polymerase ribozyme fitness (log ratio)
G19A A95U C101U | -3.88
A18U C40U | -3.83
A18C C72U C73U U106A C124U | -1.79
G17U C88A | -2.77
A18U G113C | -3.57
G19U C31U C56G C124U | -6.42
G19A G60A G93U | -3.84
C20A C40G | -4.64
A18U G60A | -2.24
G19U U21G C49A G71A C114A | 0.71
G19A A43U C101A U129G | -4.15
G19C C20U C40A G61A U87A U112A | -5.56
A18U G60U U130C | -1.84
A18U G45U G63U G71C G110C C114G C124U | -7.92
A18U C34U G61C A74C A100C G107U G110C | -7.86
C20A G42U G60A | -3.62
C20A C89U U130A | -3.54
A18G U59A A111U | -6.09
G17U G23U A74U C123G | -5.53
A18C U87G C89U | -2.03
G19C U130C | -2
G17U G61A U81G C101G G117C G128U | -7.2
A18C G63C | -4
A18G U132A | -3.07

Variant | polymerase ribozyme fitness (log ratio)
A18U U54G C114U | -4.87
G17C G120A | -3.31
A18C A43U A121G | 0.81
G19U U87A U106C A118U | -4.56
G19U U55C | -4.3
A18G G39C C94A U112G C124G | -5.87
G19A C73U C86U U96A G110A | -5.32
C20A A46C C62U C86U | -3.97
A18C C40U A41G C56G C70U | -4.84
A18C A27G A111U G128C | -6.38
C20A C49G U106C | -3.68
A18U C20U A50C G69U | -1.33
C20A C72U | -2.98
G19U C56A | -3.03
G17U G60U C88U C97U G120A | -2.79
G19U U21A C79G C114A | -0.277
A18G C80U U92C G120U U129C U130A | -6.4
A18C G71U U78G | -4.63
A18U G25C G57C C89G U92G C115U | -5.83
C20A C22A C62G U81G U96G A121U | -5.74
G17U G117C | -5.24
G17U G69U A84C | 0.342
G19U A74G | -3.02
